Measurements taken from patent publication US20030162225 (published 2003).
Substitutions are numbered along the chain they refer to.

B1: Group I clone 8 (random region) (ssRNA)
RNA: GGGAGACAAGACUAGACGCUCAACUUUCGCUAGCGCACAUGCGCACCUCUAUGCGCAUAUACGAACGUUGGCGUUCGACAUGAGACUCACAACAGUUCCCUUUAGUGAGGGUUAAUU
modifications: 2'-F pyrimidines
B2: orphan clone 2 (random region) (ssRNA)
RNA: GGGAGACAAGACUAGACGCUCAACUCCUCUAGCACCAUAUCCAAGCUACAACUUCACAACGACUCGGCCUUCGACAUGAGACUCACAACAGUUCCCUUUAGUGAGGGUUAAUU
modifications: 2'-F pyrimidines
B3: orphan clone 6 (random region) (ssRNA)
RNA: GGGAGACAAGACUAGACGCUCAAGCUGACCACCGCCAACGCAACCUCCAAUGACUUGGAUCACCUAGACGAUUUCGACAUGAGACUCACAACAGUUCCCUUUAGUGAGGGUUAAUU
modifications: 2'-F pyrimidines
B4: orphan clone 5 (random region) (ssRNA)
RNA: GGGAGACAAGACUAGACGCUCAAUAUCAACAUUAGGGCUCCUUGGGGACCAGCGUCUCCUUGCAGCCCCGAUUCGACAUGAGACUCACAACAGUUCCCUUUAGUGAGGGUUAAUU
modifications: 2'-F pyrimidines
B5: orphan clone 4 (random region) (ssRNA)
RNA: GGGAGACAAGACUAGACGCUCAACUACGUUCCUUAUCCUCCCUUCAGGAACCUGUACACCACAUUGCUUCGACAUGAGACUCACAACAGUUCCCUUUAGUGAGGGUUAAUU
modifications: 2'-F pyrimidines
B6: Group I clone 1 (random region) (ssRNA)
RNA: GGGAGACAAGACUAGACGCUCAACUUUCCUAGCGCACAUGCGCACCUCUAUGCGUAAUACGAACGUUGACGUUCGACAUGAGACUCACAACAGUUCCCUUUAGUGAGGGUUAAUU
modifications: 2'-F pyrimidines
B7: Group I clone 17 (random region) (ssRNA)
RNA: B6 RNA with C28G, G42U
modifications: 2'-F pyrimidines
B8: Group I clone 13 (random region) (ssRNA)
RNA: B6 RNA with U26C, C33U, A69G
modifications: 2'-F pyrimidines
B9: Group I clone 12 (random region) (ssRNA)
RNA: B6 RNA with U67C, A69G
modifications: 2'-F pyrimidines
B10: Group I clone 15 (random region) (ssRNA)
RNA: B6 RNA with C37U, C48A, A69G
modifications: 2'-F pyrimidines
B11: Group I clone 10 (random region) (ssRNA)
RNA: B6 RNA with U27C, C43U, A69G
modifications: 2'-F pyrimidines
B12: Group I clone 26 (random region) (ssRNA)
RNA: B6 RNA with G32A, C37U, C41U
modifications: 2'-F pyrimidines
B13: Group I clone 6 (random region) (ssRNA)
RNA: B6 RNA with U26G, G32A, U39C, A69G
modifications: 2'-F pyrimidines
B14: Group I clone 24 (random region) (ssRNA)
RNA: B6 RNA with C33U, C37U, C41U, A69G
modifications: 2'-F pyrimidines
B15: Group I clone 16 (random region) (ssRNA)
RNA: B6 RNA with C37U, U67C, A69G
modifications: 2'-F pyrimidines
B16: Group I clone 11 (random region) (ssRNA)
RNA: B6 RNA with C28G, A57G, A69G
modifications: 2'-F pyrimidines
B17: Group I clone 9 (random region) (ssRNA)
RNA: B6 RNA with U39C, A69G
modifications: 2'-F pyrimidines
B18: Group I clone 20 (random region) (ssRNA)
RNA: B6 RNA with C46U, A69G
modifications: 2'-F pyrimidines
B19: Group I clone 27 (random region) (ssRNA)
RNA: B6 RNA with G32A, G65A, U66G, C70G, G71A
modifications: 2'-F pyrimidines
B20: Group I clone 22 (random region) (ssRNA)
RNA: B6 RNA with G32A, C33U
modifications: 2'-F pyrimidines
B21: Group I clone 2 (random region) (ssRNA)
RNA: B6 RNA with G32A, A69G
modifications: 2'-F pyrimidines
B22: Group I clone 19 (random region) (ssRNA)
RNA: B6 RNA with U51C
modifications: 2'-F pyrimidines
B23: Group I clone 14 (random region) (ssRNA)
RNA: B6 RNA with C37U, A69G
modifications: 2'-F pyrimidines
B24: Group I clone 18 (random region) (ssRNA)
RNA: B6 RNA with U67A
modifications: 2'-F pyrimidines
B25: Group I clone 23 (random region) (ssRNA)
RNA: B6 RNA with G32A, C37U
modifications: 2'-F pyrimidines
B26: Group I clone 4 (random region) (ssRNA)
RNA: B6 RNA with U26C, G32A, A69G
modifications: 2'-F pyrimidines
B27: Group I clone 7 (random region) (ssRNA)
RNA: B6 RNA with A69G
modifications: 2'-F pyrimidines
B28: Group I clone 5 (random region) (ssRNA)
RNA: B6 RNA with G32A, U39C, A69G
modifications: 2'-F pyrimidines
B29: Group I clone 3 (random region) (ssRNA)
RNA: B6 RNA with U25G, G32A, A69G
modifications: 2'-F pyrimidines
B30: orphan clone 3 (random region) (ssRNA)
RNA: GGGAGACAAGACUAGACGCUCAACUACGAACUCAUGACACAAGGAUGCAAUCUCAUCCCGCCAGCCCUUCGACAUGAGACUCACAACAGUUCCCUUUAGUGAGGGUUAAUU
modifications: 2'-F pyrimidines

target: prion protein PrP alpha-form, full-length mature, oxidized (Bos taurus, UniProt P10279 P10279:25-241); assay: EMSA; details: tags: 6-octarepeat allele, Met-initiated, E. coli, untagged (Ni-NTA, SP-Sepharose, Superdex 75)
Sequence (P10279 25-241, one chain of several): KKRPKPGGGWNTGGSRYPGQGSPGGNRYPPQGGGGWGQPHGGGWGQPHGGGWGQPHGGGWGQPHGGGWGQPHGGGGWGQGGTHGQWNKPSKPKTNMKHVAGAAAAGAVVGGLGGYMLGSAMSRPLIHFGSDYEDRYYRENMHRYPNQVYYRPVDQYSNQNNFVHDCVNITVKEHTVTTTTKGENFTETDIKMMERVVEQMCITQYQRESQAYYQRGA

| Binder | binding result |
| --- | --- |
| B1 | binds |
| B2 | binds |
| B3 | binds |
| B4 | binds |
| B5 | binds |
| B6 | binds |
| B7 | binds |
| B8 | binds |
| B9 | binds |
| B10 | binds |
| B11 | binds |
| B12 | binds |
| B13 | binds |
| B14 | binds |
| B15 | binds |
| B16 | binds |
| B17 | binds |
| B18 | binds |
| B19 | binds |
| B20 | binds |
| B21 | binds |
| B22 | binds |
| B23 | binds |
| B24 | binds |
| B25 | binds |
| B26 | binds |
| B27 | binds |
| B28 | binds |
| B29 | binds |
| B30 | binds |
